The source of these data is US20250355001A1 (GTINVENT, published 2025).

Where no end group is shown, it is not given here. The star is where a group is joined. Biotin = O=C1N[C@H]2[C@H](CS[C@H]2CCCCC(=O)*)N1

One may read the EC50 (read off the curve) as the concentration giving half of the maximal effect. Low values mean greater potency, high ones weaker potency. As usually defined, the Kd is a measure of binding affinity in units of concentration. Low readings indicate a tighter complex, high ones a looser complex. The term koff denotes the first-order rate constant of dissociation. A low value points to slow dissociation. By kon is commonly meant a measure of how fast the partners come together.

Test [1] concerns the target T1, tau fragment 266-359 (R1-3) (human, UniProt P10636 583-676). In words: direct ELISA.
The next test addresses T2, tau peptide 341-353 (human).
T2 peptide: Biotin-SEKLDFKDRVQSK
The experiment in a line: ELISA on biotinylated peptide over streptavidin. The method, then:
A series of binding ELISA was performed using various truncated versions of the tau protein and 13mer peptide libraries spanning the entire hT40 molecule for mapping the epitopes of anti-tau scAbs (Full list of protein antigens used is given in Table 14). In general, ELISA plates were coated with 1 μg/ml hT40 or dGA or dGAE or other truncated versions of the protein and in the case of biotinylated peptides, plates were coated with 5 μg/ml Streptavidin followed by 1 μg/ml biotinylated peptide. The plates were blocked with 2% MPBS and scAb samples added at desired starting concentrations and double diluted across the plate. Binding was detected using anti-Human C Kappa HRP conjugated secondary antibody and the resulting immunoreaction was developed and absorbance values measured as described above.
(In general: An ELISA detects its analyte on a solid surface through an enzyme-linked reagent.)

The target in test [2] is T3, full length human tau protein 2N4R (hT40) (human, UniProt P10636 1-758).
T3 construct: recombinant; also called T441
The experiment in a line: SPR, scAb captured, tau analyte. A digest of the protocol:
(§1)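 scAb captured on flow cell 2 of an antibody-coated chip, flow cell 1 as reference; tau analyte injected 120 s association, 420 s dissociation, glycine pH 2.0 regeneration, in multi-cycle or single-cycle kinetics format. Responses fitted to a 1:1 binding model for kinetics and affinity.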
Target sequence in this assay (P10636 other isoform, or with tags, fused parts or gaps limits assumed): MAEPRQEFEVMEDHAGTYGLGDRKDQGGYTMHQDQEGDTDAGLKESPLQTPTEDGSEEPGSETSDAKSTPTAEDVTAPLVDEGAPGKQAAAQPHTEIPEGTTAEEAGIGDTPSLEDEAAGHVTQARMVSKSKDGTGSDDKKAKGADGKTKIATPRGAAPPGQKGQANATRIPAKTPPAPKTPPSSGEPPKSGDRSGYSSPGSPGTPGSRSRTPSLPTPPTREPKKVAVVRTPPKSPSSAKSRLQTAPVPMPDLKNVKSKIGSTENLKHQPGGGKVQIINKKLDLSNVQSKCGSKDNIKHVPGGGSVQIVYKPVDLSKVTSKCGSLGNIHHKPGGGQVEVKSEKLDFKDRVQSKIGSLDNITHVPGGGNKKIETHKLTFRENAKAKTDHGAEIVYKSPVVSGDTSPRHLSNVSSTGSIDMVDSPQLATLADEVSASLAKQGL

For test [3], the target named is T4, dGA (tau 297-390) (human, UniProt P10636 614-707). In words: SPR, scAb captured, tau analyte. A digest of the protocol: as §1
Target sequence in this assay (P10636 614-707 limits assumed): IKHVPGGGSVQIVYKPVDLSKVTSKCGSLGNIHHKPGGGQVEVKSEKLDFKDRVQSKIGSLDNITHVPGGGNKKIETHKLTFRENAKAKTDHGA
Test [4] addresses T3, full length human tau protein 2N4R …. The experiment in a line: hT40 ELISA.
Target sequence in this assay (P10636 other isoform, or with tags, fused parts or gaps limits assumed): as the sequence (P10636 other isoform, or with tags, fused parts or gaps limits assumed) above
Test [5] has the same target. In words: SPR, summary table. A digest of the protocol:
as §1
Target sequence in this assay (P10636 other isoform, or with tags, fused parts or gaps limits assumed): as above
A general note: SPR reads the build-up and loss of mass on a sensor chip optically.

Test [6] deals with T5, dGAE (tau 297-391) (human, UniProt P10636 614-708).
T5 construct: monomer; also called dGAE95
In words: direct ELISA.

The target of test [7] is tau fragment 337-368 (human). The experiment in a line: direct ELISA.
In test [8] the target is T3, full length human tau protein 2N4R …. In words: hT40 ELISA. This is another data set of the same source.
Target sequence in this assay (P10636 other isoform, or with tags, fused parts or gaps limits assumed): as above
A further test concerns the target T6, tau fragment 186-350 (human, UniProt P10636 503-667).
T6 construct: also called m186-350
In words: direct ELISA.

For test [9], the target named is T3, full length human tau protein 2N4R …. The experiment in a line: sandwich ELISA, S1D12 mAb capture, scAb detection. A digest of the protocol:
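Read-out was HRP anti-HuCk with absorbance at 450 nm (positive above 0.3 after background subtraction) or chemiluminescence, including directly HRP-conjugated scAbs.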
Target sequence in this assay (P10636 other isoform, or with tags, fused parts or gaps limits assumed): as above

Test [10] has as its target T4, dGA (tau 297-390). The experiment in a line: sandwich ELISA #1, S1D12 mAb capture, sample C.
Target sequence in this assay (P10636 614-707 limits assumed): as the sequence (P10636 614-707 limits assumed) above
Method: To this end, an experiment was set up to assess whether the concentrations of different tau species could be determined in spiked samples using various antibody pairings directed towards specific regions of the tau protein.
(§3) Four spiked samples were added to the first wells of designated rows and all samples were double diluted in PBS across the plate including the standard. […] Secondary antibody anti HuCk HRP was added and the reaction was developed and read as described previously. For ELISA #2, 20 nM dGAE was added to the first well and double diluted across the plate for standard curve plotting. As for ELISA #1, spiked samples of unknown protein concentrations were added to respective wells in doubling dilutions. […] For ELISA #3, a standard curve was plotted using average absorbance values obtained from binding events of hT40, dGA and dGAE all at starting concentration of 20 nM.
The target of another test is T7, tau fragment 1-49 (human).
T7 construct: also called Tau 1-49
T7 peptide: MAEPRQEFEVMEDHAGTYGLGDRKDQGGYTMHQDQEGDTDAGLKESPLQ
In words: direct ELISA.

In test [11] the target is T3, full length human tau protein 2N4R …. In words: Biacore. A digest of the protocol:
as §1
Target sequence in this assay (P10636 other isoform, or with tags, fused parts or gaps limits assumed): as the sequence (P10636 other isoform, or with tags, fused parts or gaps limits assumed) above

Test [12] concerns the target T8, human tau (hT40) with P301S and G335D of Line 66 mice (human, UniProt P10636 1-758).
T8 construct: transgene product in brain homogenate or plasma; also called L66 human tau
The experiment in a line: sandwich ELISA on brain homogenate, S1D12 mAb capture.
Method: All animals were female, 7-8 months old except Line 66+/+ which were 5 months old. […] For brain lysate preparation, half brains were sectioned into four and the individual sections were homogenised in 400 μl of ice cold RIPA buffer (Cell signalling Technology) containing protease and phosphatase inhibitors. Total protein concentrations for individual samples were established by BCA-assay and each sample was subsequently diluted to 1 mg/ml for future experiments.
Plate was washed as previously and then blocked for 1 hour at 37° C. in 2% MPBS. Brain homogenate samples (50 ng total protein) from each mouse type were added to the first wells and double diluted across the plate in PBS. These samples were left to incubate at RT for 1 hour. Various detection scAbs encompassing epitopes of interest were then added to the plate at 1 μg/ml and incubated for 1 h at RT. Secondary antibody used was anti-HuCk HRP and the assays were developed as described previously.

The target in test [13] is T3, full length human tau protein 2N4R …. In words: sandwich ELISA, hT40 titrated, S1D12 mAb capture, CB7 scAb at 1 µg/ml.
Method: as §3
In the next test the target is T9, mouse tau (mouse, UniProt P10637 2-733).
T9 construct: endogenous protein of mouse brain or plasma; also called endogenous mouse tau
In words: sandwich ELISA on mouse plasma, S1D12 mAb capture.

The target of test [14] is T1, tau fragment 266-359 (R1-3). The experiment in a line: direct ELISA. The source holds these as a separate data set.
In test [15] the target is tau fragment 337-368 (human). In words: direct ELISA. This is another data set of the same source.
Test [16] addresses T10, tau fragment 369-391 (human).
T10 peptide: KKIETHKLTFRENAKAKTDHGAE
The experiment in a line: direct ELISA.

Test [17] concerns the target T11, tau fragment 369-390 (human).
T11 peptide: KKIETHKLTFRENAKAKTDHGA
The experiment in a line: direct ELISA.

The target of a further test is T12, tau peptide 313-336 (human).
T12 peptide: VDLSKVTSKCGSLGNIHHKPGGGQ
The experiment in a line: peptide ELISA.

The target in another test is T13, tau peptide 306-323.
T13 peptide: Biotin-VQIVYKPVDLSKVTSKCG
In words: peptide ELISA.

Test [18] has as its target T3, full length human tau protein 2N4R …. The experiment in a line: ELISA. A digest of the protocol: (§2)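 Plates were coated with 1 μg/ml tau protein or truncated fragment, or with 5 μg/ml streptavidin followed by 1 μg/ml biotinylated 13mer peptide, then blocked with 2% MPBS. Anti-tau scAbs were added at a starting concentration and double diluted. Bound scAb was detected with HRP-conjugated anti-human C kappa by absorbance.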

For test [19], the target named is T11, tau fragment 369-390. In words: ELISA. A digest of the protocol: as §2
In test [20] the target is T4, dGA (tau 297-390). In words: ELISA. A digest of the protocol: as §2
Test [21] deals with T10, tau fragment 369-391. In words: ELISA. A digest of the protocol: as §2
The target in test [22] is T5, dGAE (tau 297-391). The experiment in a line: ELISA. A digest of the protocol:
as §2

Test [23] addresses T5, dGAE (tau 297-391). The experiment in a line: SPR, scAb captured, tau analyte. A digest of the protocol:
as §1
Target sequence in this assay (P10636 614-708 limits assumed): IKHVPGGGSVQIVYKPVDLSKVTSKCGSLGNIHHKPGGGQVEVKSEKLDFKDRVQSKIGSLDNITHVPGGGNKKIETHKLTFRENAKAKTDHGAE

The target in test [24] is T5, dGAE (tau 297-391). The experiment in a line: sandwich ELISA, dGAE titrated, S1D12 mAb capture.
Target sequence in this assay (P10636 614-708 limits assumed): as above
Test [25] has as its target T3, full length human tau protein 2N4R …. In words: direct ELISA. A digest of the protocol: as §2
Test [26] has as its target T4, dGA (tau 297-390). In words: direct ELISA. A digest of the protocol: as §2
Target sequence in this assay (P10636 614-707 limits assumed): as the sequence (P10636 614-707 limits assumed) above
The target of test [27] is T5, dGAE (tau 297-391). The experiment in a line: Biacore, for dGAE.
Target sequence in this assay (P10636 614-708 limits assumed): as the sequence (P10636 614-708 limits assumed) above

tau fragment 337-368 (human), sequence (peptide, as listed by the source): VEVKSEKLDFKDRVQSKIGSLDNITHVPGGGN
T1 sequence (P10636 583-676): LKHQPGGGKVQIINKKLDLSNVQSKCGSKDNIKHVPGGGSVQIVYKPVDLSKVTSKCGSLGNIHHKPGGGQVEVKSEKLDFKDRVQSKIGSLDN
T9 sequence (P10637 other isoform, or with tags, fused parts or gaps limits assumed): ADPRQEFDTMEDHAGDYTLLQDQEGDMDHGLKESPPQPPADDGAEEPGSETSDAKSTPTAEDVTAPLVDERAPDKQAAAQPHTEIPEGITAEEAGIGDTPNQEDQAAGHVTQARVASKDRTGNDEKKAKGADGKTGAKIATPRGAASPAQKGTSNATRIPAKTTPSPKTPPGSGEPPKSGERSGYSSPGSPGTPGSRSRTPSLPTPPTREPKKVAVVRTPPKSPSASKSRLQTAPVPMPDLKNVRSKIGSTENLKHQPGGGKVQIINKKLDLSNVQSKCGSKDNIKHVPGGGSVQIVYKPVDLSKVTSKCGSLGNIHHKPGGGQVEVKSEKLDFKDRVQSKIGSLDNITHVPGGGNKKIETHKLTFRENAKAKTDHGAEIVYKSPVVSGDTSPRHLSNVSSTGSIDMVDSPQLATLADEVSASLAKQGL
T6 sequence (P10636 503-667): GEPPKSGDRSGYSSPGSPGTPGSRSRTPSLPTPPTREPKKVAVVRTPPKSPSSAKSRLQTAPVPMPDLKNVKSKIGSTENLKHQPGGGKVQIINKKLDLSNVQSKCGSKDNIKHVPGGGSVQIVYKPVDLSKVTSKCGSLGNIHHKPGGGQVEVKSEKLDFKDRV
Method for mouse tau: After washing and blocking as normal, several known standard solutions were set up in triplicate starting at 20 ng/ml of the desired protein before double diluted in the remaining wells. Mouse samples were added to wells in duplicate with a blank in between each sample group. Line1 plasma was diluted 1:10 before addition to plate to account for its high concentration while other samples were diluted 1:2 to account for potential matrix effects. These samples were left to incubate at RT for 1 hour. HRP-conjugated secondary scAb (conjugation carried out according to manufacturer's guidelines, Abcam) was added to each well and left to incubate at RT for 1 hour. The ELISA was developed using SuperSignal ELISA Femto Substrate (Thermo Scientific) and total luminescence was read on Clariostar Plus plate reader (BMG Labtech). Tau concentrations were established using a 4-parameter fit on concentration curves generated from recombinant tau protein spiked into samples at known concentration. For WT and L66 hT40 was used as a calibrator while dGA was used for L1 calibration.

B1: S1D12 scAb (scFv, not shown: small tags and cut ends)
scFv: QVQLQESGPSLVKPSQTLSLTCTVSGFSLNNNAVGWVRQAPGKVPESLVGCSSDGTCYYNSALKSRLDITRDTSKNQISLSLSSVTTDDAAVYYCTRGHYSIYGYDYLGTIDYWGPGLLVTVSSEGKSSGASGESKVDDQAVLTQPSSVSGSLGQRVSITCSGSSSNVGGGNSVGWYQHLPGSGLKTIIYDTNSRPSGVPDRFSGSRSGNTATLTINSLQAEDEGDYYCVTGDSTTHDDLVGSGTRLTVLG
notes: scAb
In the case of B1, the “EC50 (read off the curve)” value was about 0.5 µg/mL in test [1]; about 0.8 µg/mL in the test with tau peptide 341-353; about 0.005 µg/mL in test [4]; about 3 µg/mL with dGAE (tau 297-391) [6]; about 4 µg/mL with tau fragment 337-368 [7]; about 1 µg/mL in [8]. Moreover, the “EC50 (read off the curve)” value with tau fragment 186-350 was about 2 µg/mL. The Kd in [2] amounted to 0.122 nM; with dGA (tau 297-390) [3] it was 0.344 nM; in [5], 0.122 nM. Moreover, the koff came to 0.00015 s⁻¹ in test [2] and 0.000418 s⁻¹ in the test with dGA (tau 297-390) [3]. Besides, the values for the kon (in test [2]; with dGA (tau 297-390) [3]) were 1.25e+06 M⁻¹ s⁻¹ and 1.21e+06 M⁻¹ s⁻¹, respectively.

B2: CB7 scAb (scFv, not shown: small tags and cut ends)
scFv: QVQLQESGPSLVKPSQTLSLTCTVSGFSLTNYRVGWVRQAPGKALEWVSNIRSGGTTWYNPALKSRLSITADTSKSQVSLSLSSVTTEDTAVYYCARDSSGDLYAYDYWGPGLLVTVSSEGKSSGASGESKVDDQAVLTQPSSVSRSLGQSVSMTCSGSSSNVGYGNYMAWFQQVPGSAPKLLIYGATSRASGVPDRFSGSRSGNTATLTISSLQAEDEADYYCASYDSTSGGVFGSGTRLTVLG
notes: scAb
In test [9], B2 gave a LoD chemiluminescence detection of 3.33 ng/mL. Moreover, the LoD colourimetric detection in [9] stood at 15 ng/mL. In addition, the binding result with dGA (tau 297-390) [10] is listed as “no binding (tested: 2 nM dGA)”; with tau fragment 1-49 it was “binds”; in [12] it was “binds”; in the test with mouse tau, “no binding”. The Kd in test [2] was 5.19 nM; in test [5] it was 5.19 nM; in test [11] it was 5.2 nM. Besides, the koff in test [2] was determined as 0.000694 s⁻¹. This molecule displayed a kon in test [2] of 133000 M⁻¹ s⁻¹. For the same molecule, the “EC50 (read off the curve)” value in test [13] was about 4 nM.

B3: NS2A1 scAb (scFv, not shown: small tags and cut ends)
scFv: QVQLQESGPSLVKPSQTLSLTCTVSGFSLSTNSVGWVRQAPGKAPEWVAGIDTDGEEGFNPVLKSRLSITRDTSKSQVSLSLSNVTSEDTAVYYCGRSYRTDGLAYGYVQAIDYWGPGLLVTISSEGKSSGASGESKVDDQSVLTQPSSVSGSPGQTVSITCSGSYIGSSGVGWFQQLPGSGLRTIIVASDGRPSGVPDGFSMSKSGNTATLTISSLQAEDEADYFCGSSDRTQYTGLFGSGTRLTVLG
notes: scAb
As for B3, the binding result (in [14]; in the test with tau fragment 337-368 [15]; with tau fragment 369-391 [16]; with tau fragment 369-390 [17]) was “no binding (tested: 25 ug/ml)” in each case. For the same molecule, the Kd is 2.9 nM in test [2], 5.4 nM in the test with dGA (tau 297-390) [3] and 2.9 nM in test [5]. Besides, the koff in test [2] turned out to be 0.000739 s⁻¹; with dGA (tau 297-390) [3], 0.00102 s⁻¹. For the same molecule, the kon in test [2] came out at 252000 M⁻¹ s⁻¹; in the test with dGA (tau 297-390) [3], 188000 M⁻¹ s⁻¹.

B4: E1B8 scAb (scFv, not shown: small tags and cut ends)
scFv: QVQLQESGPSLVKPSQTLSLTCTVSGFSLTNYPVGWVRQAPGKALEWIGNIENDGSANYASALKSRLSITRDTSKNQVSLSLSSATTEDTAVYYCGREFGGSDGYTYFVDIDYWGPGLLVTVSSEGKSSGASGESKVDDQAVLTQPSSVSKSLGQSVSITCSGSSSNVGYGNYVSWFQQVPGSAPKILIYGATSRASGVPDRFSGSRSGNTATLTITSLQAEDEADYYCASYDGSSSGVFGSGTRLTVLG
notes: scAb
In the case of B4, in the test with dGA (tau 297-390) [3], the Kd was 17.7 nM, the koff stood at 0.00242 s⁻¹ and the kon was 137000 M⁻¹ s⁻¹. Further, the “EC50 (read off the curve)” value in the test with tau peptide 313-336 was about 2 µg/mL. For the same molecule, the binding result with tau peptide 306-323 is listed as “no binding (tested: 25 ug/ml)”.

B5: MD9/MoD9 scAb (scFv, not shown: small tags and cut ends)
scFv: QVRLQESGPSLVKSSQTLSLTCTVSGFSLTRESIAWVRQAPGKVPEWLGGVGIDGTSYYSPALKSRLSITRDTSKSQASLSLSSVATEDTAMYYCARNYIDFEYWGPGLLVTVSSEGKSSGASGESKVDDQAVLTQLSSVSGSLGQRISITCSGSSSNVGIYDVSWFQQLPGSGLRTVIYGTNNRPSGVPDRFSGSRSGNTATLTISSLQSEDEAIYYCAAGDSSTIAVFGSGTRLTVLG
notes: scAb
For B5, the binding result (in test [18]; in the test with tau fragment 369-390 [19]; with dGA (tau 297-390) [20]; with tau fragment 369-391 [21]; with dGAE (tau 297-391) [22]) was “binds” in each case.

B6: E2E8 scAb (scFv, not shown: small tags and cut ends)
scFv: QVQLQESGPSLVKPSQTLSLTCTVSGFSLTDRGVAWVRQAPGKALEWVGTMRSGGTIDYNPALKSRLSITRDTSKSQVFLSLSSVTTEDMAMYYCARGYLSGDRYAWGRGLLVTVSSEGKSSGASGESKVDDQAVLTQPSSVSKSLGQSVSIACSGSRSDIGYGNYVSWFQQIPGSAPKLLIYDTNTRASGVPDRFSGARSGNTATLTINSLQAEDEADYYCANIDSSRSHLFGSGTRLTVLG
notes: scAb
As for B6, the Kd was 0.401 nM with dGAE (tau 297-391) [23] and 0.4 nM with dGAE (tau 297-391) [27]. This molecule also had a koff with dGAE (tau 297-391) [23] of 0.000191 s⁻¹. Further, the kon with dGAE (tau 297-391) [23] amounted to 477000 M⁻¹ s⁻¹. In the test with dGAE (tau 297-391) [24], the “EC50 (read off the curve)” value is about 0.7 nM. Also, the binding result (in [25]; with dGA (tau 297-390) [26]) was “no binding (tested: 25 ug/ml)” throughout.
